Target: acetylcholine receptor
Assay: SPR, AchR immobilised on CM5 chip, peptide 10 uM

Binder	Binding affinity (RU)
KRFEFK [6mer-1-932]	38
RRPWNR [6mer-1-933]	28
KRPPGK [6mer-1-934]	39
RKKDIK [6mer-1-935]	40
RKETDR [6mer-1-936]	36
RKPTNR [6mer-1-937]	34
KKIAWK [6mer-1-938]	28
KRNDFK [6mer-1-939]	41
RKPEDR [6mer-1-940]	29
RKTPKK [6mer-1-941]	29
RRMMVR [6mer-1-942]	37
KKEHDK [6mer-1-943]	43
RKPAGK [6mer-1-944]	25
RKTSIK [6mer-1-945]	31
RRCEPR [6mer-1-946]	31
KRTKGR [6mer-1-947]	31
RKFTVR [6mer-1-948]	24
RKEMPR [6mer-1-949]	37
RKEDKR [6mer-1-950]	29
RKAMDK [6mer-1-951]	29
KRHDKK [6mer-1-952]	28
KRTNGK [6mer-1-953]	26
KKAKGR [6mer-1-954]	41
RKECFK [6mer-1-955]	23

Binder	Binding affinity (RU)
KRKSNK [6mer-1-956]	34
KKPPDK [6mer-1-957]	43
KRYAGR [6mer-1-958]	43
KKIWFR [6mer-1-959]	36
KKCPFR [6mer-1-960]	34
RRTWAR [6mer-1-961]	122
KKNCDK [6mer-1-962]	42
RREEDK [6mer-1-963]	29
RKFKNK [6mer-1-964]	42
KRIWDK [6mer-1-965]	36
RRNSWK [6mer-1-966]	22
RRTEDR [6mer-1-967]	24
RREDFR [6mer-1-968]	39
RKDHWR [6mer-1-969]	33
RRCCAR [6mer-1-970]	38
RKIEMK [6mer-1-971]	32
RRHTHK [6mer-1-972]	43
RRDHVK [6mer-1-973]	25
RKPAHK [6mer-1-974]	27
RKASIK [6mer-1-975]	22
RKEMIK [6mer-1-976]	40
RRPCFR [6mer-1-977]	43
RRKSHK [6mer-1-978]	43
RRYWEK [6mer-1-979]	42

Binder	Binding affinity (RU)
RKICAK [6mer-1-980]	33
RKDDKK [6mer-1-981]	27
KRCPDR [6mer-1-982]	35
KRPHKK [6mer-1-983]	38
KKESDK [6mer-1-984]	33
KRKSER [6mer-1-985]	22
KKAEEK [6mer-1-986]	22
RRTEFK [6mer-1-987]	34
KRYPDR [6mer-1-988]	24
KRATVR [6mer-1-989]	27
RRFTER [6mer-1-990]	40
RKAHDK [6mer-1-991]	25
RRCTAK [6mer-1-992]	28
KRAHDK [6mer-1-993]	26
KKHEFR [6mer-1-994]	37
KRCHHR [6mer-1-995]	33
RRPPWK [6mer-1-996]	39
KKPTFR [6mer-1-997]	35
KRNPVK [6mer-1-998]	41
RKATNR [6mer-1-999]	24
RKMSHR [6mer-1-1000]	28
KRIHMK [6mer-1-1002]	29
RKYCHR [6mer-1-1003]	24
RKHSHR [6mer-1-1004]	41

Target: acetylcholine receptor
Assay: SPR, receptor immobilized, peptide 10 uM

Binder	Binding affinity (RU)
KDWPK [5mer-1072]	32
RPNMR [5mer-773]	25
RDEAK [5mer-1073]	29
RTCDR [5mer-774]	25
RPCPR [5mer-1074]	17
RHTVK [5mer-775]	23
